Results taken from the supplement of paper PMC9112550, “Optimization of the antimicrobial peptide Bac7 by deep mutational scanning” (BMC Biology, 2022).

Tested on: Escherichia coli TOP10
Assay: shrunken log2 fold change of peptide-encoding DNA abundance (4.5 h post-induction vs induction); higher = less antimicrobial activity (less host growth inhibition)
Conditions: time post-induction: 4.5 h; library: site-saturation at positions 5, 18, 19, 20
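Further: peptides expressed intracellularly from a pBAD plasmid library in pooled LB shake-flask culture, induced with 0.3% L-arabinose, DNA abundance read by NGS, three biological replicates, DESeq2 with apeglm shrinkage.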

Row | Sequence | shrunken log2 fold change
1 | RRIRFRPPRLPRPRPRPDNQPRP | -0.834
2 | RRIRLRPPRLPRPRPRPMEGPRP | 0.0303
3 | RRIRIRPPRLPRPRPRPPRFPRP | 0.0593
4 | RRIRGRPPRLPRPRPRPNLAPRP | 0.961
5 | RRIRDRPPRLPRPRPRPQDWPRP | 0.324
6 | RRIRRRPPRLPRPRPRPQHTPRP | 0.191
7 | RRIRYRPPRLPRPRPRPVMLPRP | -0.256
8 | RRIRMRPPRLPRPRPRPHKPPRP | 0.0226
9 | RRIRWRPPRLPRPRPRPNWAPRP | -0.0835
10 | RRIRKRPPRLPRPRPRPKKCPRP | 0.405
11 | RRIRFRPPRLPRPRPRPHSYPRP | -0.0495
12 | RRIRERPPRLPRPRPRPTPDPRP | 0.116
13 | RRIRDRPPRLPRPRPRPPVEPRP | -0.0332
14 | RRIRIRPPRLPRPRPRPVNQPRP | 0.0745
15 | RRIRTRPPRLPRPRPRPCVFPRP | -0.215
16 | RRIRRRPPRLPRPRPRPVKTPRP | 0.05
17 | RRIRNRPPRLPRPRPRPFRYPRP | -0.591
18 | RRIRRRPPRLPRPRPRPGIEPRP | -0.0777
19 | RRIRFRPPRLPRPRPRPYKAPRP | -0.153
20 | RRIRMRPPRLPRPRPRPLSWPRP | 0.982
21 | RRIRQRPPRLPRPRPRPNQHPRP | 0.0696
22 | RRIRYRPPRLPRPRPRPYFYPRP | -0.49
23 | RRIRIRPPRLPRPRPRPVDEPRP | -0.0203

Row | Sequence | shrunken log2 fold change
24 | RRIRYRPPRLPRPRPRPFVHPRP | -1.49
25 | RRIRERPPRLPRPRPRPIKDPRP | -0.168
26 | RRIRRRPPRLPRPRPRPGDNPRP | 0.169
27 | RRIRVRPPRLPRPRPRPLRRPRP | 0.644
28 | RRIRGRPPRLPRPRPRPFCFPRP | 0.778
29 | RRIRCRPPRLPRPRPRPISSPRP | -0.0694
30 | RRIRFRPPRLPRPRPRPTDYPRP | -0.578
31 | RRIRVRPPRLPRPRPRPWDPPRP | -0.301
32 | RRIRSRPPRLPRPRPRPPLNPRP | 0.0261
33 | RRIRARPPRLPRPRPRPCFNPRP | 0.0639
34 | RRIRRRPPRLPRPRPRPLHYPRP | 0.239
35 | RRIRRRPPRLPRPRPRPESVPRP | 0.075
36 | RRIRYRPPRLPRPRPRPHHLPRP | -0.329
37 | RRIRQRPPRLPRPRPRPEVVPRP | 0.196
38 | RRIRRRPPRLPRPRPRPFRQPRP | -0.0196
39 | RRIRWRPPRLPRPRPRPKPWPRP | 0.515
40 | RRIRNRPPRLPRPRPRPSHMPRP | -0.883
41 | RRIRPRPPRLPRPRPRPEHQPRP | -0.0202
42 | RRIRERPPRLPRPRPRPQSCPRP | 0.00299
43 | RRIRGRPPRLPRPRPRPTFPPRP | 0.347
44 | RRIRHRPPRLPRPRPRPQYSPRP | -0.572
45 | RRIRYRPPRLPRPRPRPQTVPRP | -0.261
46 | RRIRIRPPRLPRPRPRPGCYPRP | -0.715

Row | Sequence | shrunken log2 fold change
47 | RRIRLRPPRLPRPRPRPMDFPRP | -0.0499
48 | RRIRQRPPRLPRPRPRPRGKPRP | 0.00142
49 | RRIRERPPRLPRPRPRPIKVPRP | -0.0179
50 | RRIRGRPPRLPRPRPRPASFPRP | 0.345
51 | RRIRARPPRLPRPRPRPIMPPRP | 0.167
52 | RRIRARPPRLPRPRPRPNLIPRP | 1.17
53 | RRIRYRPPRLPRPRPRPWSVPRP | -0.554
54 | RRIRHRPPRLPRPRPRPPHFPRP | 0.297
55 | RRIRGRPPRLPRPRPRPGRRPRP | 0.849
56 | RRIRDRPPRLPRPRPRPVATPRP | 0.814
57 | RRIRARPPRLPRPRPRPGYQPRP | 0.0478
58 | RRIRYRPPRLPRPRPRPGNSPRP | -0.0689
59 | RRIRPRPPRLPRPRPRPRGKPRP | -0.0806
60 | RRIRQRPPRLPRPRPRPSPHPRP | -0.511
61 | RRIRARPPRLPRPRPRPEEYPRP | -0.0897
62 | RRIRNRPPRLPRPRPRPNYKPRP | -0.827
63 | RRIRYRPPRLPRPRPRPVIVPRP | -0.877
64 | RRIRERPPRLPRPRPRPIWTPRP | -0.0563
65 | RRIRERPPRLPRPRPRPDTFPRP | -0.00141
66 | RRIRIRPPRLPRPRPRPVVGPRP | 0.0233
67 | RRIRLRPPRLPRPRPRPPPFPRP | 0.791
68 | RRIRHRPPRLPRPRPRPKQMPRP | -0.0152
69 | RRIRRRPPRLPRPRPRPHNDPRP | 1.99

Row | Sequence | shrunken log2 fold change
70 | RRIRQRPPRLPRPRPRPTMFPRP | -0.208
71 | RRIRGRPPRLPRPRPRPWTNPRP | 0.0419
72 | RRIRDRPPRLPRPRPRPFQWPRP | -0.156
73 | RRIRGRPPRLPRPRPRPMWPPRP | 1.07
74 | RRIRMRPPRLPRPRPRPCNMPRP | -0.126
75 | RRIRTRPPRLPRPRPRPALLPRP | 0.226
76 | RRIRHRPPRLPRPRPRPKHRPRP | 0.376
77 | RRIRLRPPRLPRPRPRPTQPPRP | 0.634
78 | RRIRLRPPRLPRPRPRPMLVPRP | -0.225
79 | RRIRTRPPRLPRPRPRPWQMPRP | -0.0135
80 | RRIRQRPPRLPRPRPRPIMQPRP | -0.0377
81 | RRIRARPPRLPRPRPRPSFYPRP | -0.155
82 | RRIRMRPPRLPRPRPRPFFHPRP | -0.243
83 | RRIRPRPPRLPRPRPRPWNFPRP | -0.205
84 | RRIRLRPPRLPRPRPRPNSWPRP | -0.0901
85 | RRIRERPPRLPRPRPRPVYNPRP | -0.0493
86 | RRIRHRPPRLPRPRPRPTSLPRP | -0.135
87 | RRIRRRPPRLPRPRPRPPQLPRP | 1.02
88 | RRIRIRPPRLPRPRPRPIYYPRP | -0.539
89 | RRIRHRPPRLPRPRPRPHYEPRP | 0.0367
90 | RRIRHRPPRLPRPRPRPYDKPRP | -0.961
91 | RRIRLRPPRLPRPRPRPMTMPRP | 0.024
